Starred links: 1 amine or outer side, 2 acyl side, 3 side chain; linkers in the order of their positions; H or OH if unused. Non-standard residues stand in square brackets, D forms with d. *: point of attachment. Bh4ClF = β-4-chloro-L-homophenylalanine, O=C(C[C@H](Cc1ccc(Cl)cc1)N[*:1])[*:2]; AC4Abu = α-carboxy-4-aminobutyric acid, O=C(C(CCN[*:1])C(=O)[*:3])[*:2]; Oic = O=C(O)[C@@H]1C[C@@H]2CCCC[C@@H]2N1; Phe(4-Cl) = N[C@@H](Cc1ccc(Cl)cc1)C(=O)O; dPhe(4-I) = N[C@H](Cc1ccc(I)cc1)C(=O)O; γGlu = O=C(O)[C@H](CCC(=O)[*:2])N[*:1]; 2Nal = N[C@@H](Cc1ccc2ccccc2c1)C(=O)O; d2Nal = N[C@H](Cc1ccc2ccccc2c1)C(=O)O; dIgl = N[C@@H](C(=O)O)C1Cc2ccccc2C1; B4ClF = β-4-chloro-L-phenylalanine; Gly(cPent) = N[C@H](C(=O)O)C1CCCC1; NMeR = CN[C@@H](CCCNC(=N)N)C(=O)O; Tridecanoyl = CCCCCCCCCCCCC(=O)*; hArg = N=C(N)NCCCC[C@H](N)C(=O)O; Cha = N[C@@H](CC1CCCCC1)C(=O)O; αMeL = CC(C)C[C@](C)(N)C(=O)O; Aic = NC1(C(=O)O)Cc2ccccc2C1; Tle = CC(C)(C)[C@H](N)C(=O)O; Nle = CCCC[C@H](N)C(=O)O; Deg = CCC(N)(CC)C(=O)O; AEEA = NCCOCCOCC(=O)O
T1: human APJ receptor (human, UniProt P35414 1-380)
T1 sequence (looked up): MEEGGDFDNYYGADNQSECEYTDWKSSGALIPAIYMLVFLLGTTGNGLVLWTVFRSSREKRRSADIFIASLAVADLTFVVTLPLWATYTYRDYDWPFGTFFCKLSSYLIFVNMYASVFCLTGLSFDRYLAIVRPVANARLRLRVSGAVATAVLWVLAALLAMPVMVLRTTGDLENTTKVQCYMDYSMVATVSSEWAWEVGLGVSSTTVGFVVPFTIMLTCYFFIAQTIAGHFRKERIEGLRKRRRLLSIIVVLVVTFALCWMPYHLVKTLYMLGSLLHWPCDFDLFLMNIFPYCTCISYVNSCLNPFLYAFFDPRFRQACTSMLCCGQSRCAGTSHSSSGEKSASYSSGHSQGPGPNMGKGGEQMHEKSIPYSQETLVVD

T2: rat APJ receptor (rat, UniProt Q9JHG3 1-377)
T2 sequence (looked up): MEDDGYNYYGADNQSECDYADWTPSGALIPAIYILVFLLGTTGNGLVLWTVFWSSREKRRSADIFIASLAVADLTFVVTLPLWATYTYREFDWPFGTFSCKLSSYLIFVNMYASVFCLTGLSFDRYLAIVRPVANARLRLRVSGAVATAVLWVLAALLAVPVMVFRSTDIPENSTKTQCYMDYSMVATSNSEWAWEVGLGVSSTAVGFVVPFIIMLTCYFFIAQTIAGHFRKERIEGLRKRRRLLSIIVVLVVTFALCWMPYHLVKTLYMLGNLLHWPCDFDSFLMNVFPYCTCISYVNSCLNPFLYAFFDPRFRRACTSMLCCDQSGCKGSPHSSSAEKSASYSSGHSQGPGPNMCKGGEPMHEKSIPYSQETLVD


What was measured:
human APJ receptor = biological target: T1, human APJ receptor; experiment: cell-based or functional assay
rat APJ receptor = biological target: T2, rat APJ receptor; experiment: cell-based or functional assay

Binder	EC50 Human APJ Receptor (GTPγS assay) (human APJ receptor)	EC50 Rat APJ Receptor (GTPγS assay) (rat APJ receptor)
Tridecanoyl-[AC4Abu][AEEA][AEEA][dQ][hArg]P[dR][Cha]SHKG[Oic][Nle]P[d2Nal]-OH (SMILES CCCCCCCCCCCCC(=O)NCCC(C(=O)O)C(=O)NCCOCCOCC(=O)NCCOCCOCC(=O)N[C@H](CCC(N)=O)C(=O)N[C@@H](CCCCNC(=N)N)C(=O)N1CCC[C@H]1C(=O)N[C@H](CCCNC(=N)N)C(=O)N[C@@H](CC1CCCCC1)C(=O)N[C@@H](CO)C(=O)N[C@@H](Cc1c[nH]cn1)C(=O)N[C@@H](CCCCN)C(=O)NCC(=O)N1[C@H](C(=O)N[C@@H](CCCC)C(=O)N2CCC[C@H]2C(=O)N[C@H](Cc2ccc3ccccc3c2)C(=O)O)C[C@@H]2CCCC[C@@H]21) [Apelin polypeptide SEQ ID NO: 407]	124 nM	216 nM
Tridecanoyl-[γGlu][AEEA][AEEA][dQ][hArg]P[dR][Cha]SHKG[Oic][Nle]P[D‑4IF]-OH [Apelin polypeptide SEQ ID NO: 369]	25.9 nM	42 nM
Tridecanoyl-[γGlu][AEEA][AEEA][dQ][hArg]P[dR][Cha]SHKG[Oic][Nle]P[2Nal]-OH [Apelin polypeptide SEQ ID NO: 368]	32.3 nM	31.4 nM
Tridecanoyl-[γGlu][AEEA][AEEA][dQ][hArg]P[dR][Cha]SHKG[Oic][Nle]P[B4ClF]-OH [Apelin polypeptide SEQ ID NO: 432]	11.1 nM	16.2 nM
Tridecanoyl-[AC4Abu][AEEA][AEEA][dQ][hArg]P[dR][Cha]SHKG[Oic][Nle][dPhe(4-I)]-OH (SMILES CCCCCCCCCCCCC(=O)NCCC(C(=O)O)C(=O)NCCOCCOCC(=O)NCCOCCOCC(=O)N[C@H](CCC(N)=O)C(=O)N[C@@H](CCCCNC(=N)N)C(=O)N1CCC[C@H]1C(=O)N[C@H](CCCNC(=N)N)C(=O)N[C@@H](CC1CCCCC1)C(=O)N[C@@H](CO)C(=O)N[C@@H](Cc1c[nH]cn1)C(=O)N[C@@H](CCCCN)C(=O)NCC(=O)N1[C@H](C(=O)N[C@@H](CCCC)C(=O)N[C@H](Cc2ccc(I)cc2)C(=O)O)C[C@@H]2CCCC[C@@H]21) [Apelin polypeptide SEQ ID NO: 453]	19 nM	20.8 nM
Tridecanoyl-[AC4Abu][AEEA][AEEA]Q[NMeR][αMeL]SHKG[Oic][Nle]P[Phe(4-Cl)]-OH (SMILES CCCCCCCCCCCCC(=O)NCCC(C(=O)O)C(=O)NCCOCCOCC(=O)NCCOCCOCC(=O)N[C@@H](CCC(N)=O)C(=O)N(C)[C@@H](CCCNC(=N)N)C(=O)N[C@@](C)(CC(C)C)C(=O)N[C@@H](CO)C(=O)N[C@@H](Cc1c[nH]cn1)C(=O)N[C@@H](CCCCN)C(=O)NCC(=O)N1[C@H](C(=O)N[C@@H](CCCC)C(=O)N2CCC[C@H]2C(=O)N[C@@H](Cc2ccc(Cl)cc2)C(=O)O)C[C@@H]2CCCC[C@@H]21) [Apelin polypeptide SEQ ID NO: 397]	6.36 nM	16.5 nM
Tridecanoyl-[γGlu][AEEA][AEEA][dQ][hArg]P[dR][Deg]SHKG[Oic][Nle]P[Phe(4-Cl)]-OH (SMILES CCCCCCCCCCCCC(=O)N[C@@H](CCC(=O)NCCOCCOCC(=O)NCCOCCOCC(=O)N[C@H](CCC(N)=O)C(=O)N[C@@H](CCCCNC(=N)N)C(=O)N1CCC[C@H]1C(=O)N[C@H](CCCNC(=N)N)C(=O)NC(CC)(CC)C(=O)N[C@@H](CO)C(=O)N[C@@H](Cc1c[nH]cn1)C(=O)N[C@@H](CCCCN)C(=O)NCC(=O)N1[C@H](C(=O)N[C@@H](CCCC)C(=O)N2CCC[C@H]2C(=O)N[C@@H](Cc2ccc(Cl)cc2)C(=O)O)C[C@@H]2CCCC[C@@H]21)C(=O)O) [Apelin polypeptide SEQ ID NO: 434]	11 nM	11.4 nM
Tridecanoyl-[γGlu][AEEA][AEEA][dQ][hArg]P[dR][Cha]SYKG[Oic][Nle]P[Phe(4-Cl)]-OH (SMILES CCCCCCCCCCCCC(=O)N[C@@H](CCC(=O)NCCOCCOCC(=O)NCCOCCOCC(=O)N[C@H](CCC(N)=O)C(=O)N[C@@H](CCCCNC(=N)N)C(=O)N1CCC[C@H]1C(=O)N[C@H](CCCNC(=N)N)C(=O)N[C@@H](CC1CCCCC1)C(=O)N[C@@H](CO)C(=O)N[C@@H](Cc1ccc(O)cc1)C(=O)N[C@@H](CCCCN)C(=O)NCC(=O)N1[C@H](C(=O)N[C@@H](CCCC)C(=O)N2CCC[C@H]2C(=O)N[C@@H](Cc2ccc(Cl)cc2)C(=O)O)C[C@@H]2CCCC[C@@H]21)C(=O)O) [Apelin polypeptide SEQ ID NO: 373]	2.81 nM	3.31 nM
Tridecanoyl-[γGlu][AEEA][AEEA][dQ][hArg]P[dR][Cha]SHKG[Oic][Nle]P[Bh4ClF]-OH [Apelin polypeptide SEQ ID NO: 370]	12.9 nM	23.7 nM
Tridecanoyl-[γGlu][AEEA][AEEA][dQ][hArg]P[dR][Cha]SHKG[Oic][Nle][Aic]-OH (SMILES CCCCCCCCCCCCC(=O)N[C@@H](CCC(=O)NCCOCCOCC(=O)NCCOCCOCC(=O)N[C@H](CCC(N)=O)C(=O)N[C@@H](CCCCNC(=N)N)C(=O)N1CCC[C@H]1C(=O)N[C@H](CCCNC(=N)N)C(=O)N[C@@H](CC1CCCCC1)C(=O)N[C@@H](CO)C(=O)N[C@@H](Cc1c[nH]cn1)C(=O)N[C@@H](CCCCN)C(=O)NCC(=O)N1[C@H](C(=O)N[C@@H](CCCC)C(=O)NC2(C(=O)O)Cc3ccccc3C2)C[C@@H]2CCCC[C@@H]21)C(=O)O) [Apelin polypeptide SEQ ID NO: 595]	50 nM	54.8 nM
Tridecanoyl-[γGlu][AEEA][AEEA][dQ][hArg]P[dR][Tle]SHKG[Oic][Nle]P[Phe(4-Cl)]-OH (SMILES CCCCCCCCCCCCC(=O)N[C@@H](CCC(=O)NCCOCCOCC(=O)NCCOCCOCC(=O)N[C@H](CCC(N)=O)C(=O)N[C@@H](CCCCNC(=N)N)C(=O)N1CCC[C@H]1C(=O)N[C@H](CCCNC(=N)N)C(=O)N[C@H](C(=O)N[C@@H](CO)C(=O)N[C@@H](Cc1c[nH]cn1)C(=O)N[C@@H](CCCCN)C(=O)NCC(=O)N1[C@H](C(=O)N[C@@H](CCCC)C(=O)N2CCC[C@H]2C(=O)N[C@@H](Cc2ccc(Cl)cc2)C(=O)O)C[C@@H]2CCCC[C@@H]21)C(C)(C)C)C(=O)O) [Apelin polypeptide SEQ ID NO: 433]	12.8 nM	19.8 nM
Tridecanoyl-[AC4Abu][AEEA][AEEA][dQ][hArg]P[dR][Cha]SHKG[Oic][Nle]P[Gly(cPent)]-OH (SMILES CCCCCCCCCCCCC(=O)NCCC(C(=O)O)C(=O)NCCOCCOCC(=O)NCCOCCOCC(=O)N[C@H](CCC(N)=O)C(=O)N[C@@H](CCCCNC(=N)N)C(=O)N1CCC[C@H]1C(=O)N[C@H](CCCNC(=N)N)C(=O)N[C@@H](CC1CCCCC1)C(=O)N[C@@H](CO)C(=O)N[C@@H](Cc1c[nH]cn1)C(=O)N[C@@H](CCCCN)C(=O)NCC(=O)N1[C@H](C(=O)N[C@@H](CCCC)C(=O)N2CCC[C@H]2C(=O)N[C@H](C(=O)O)C2CCCC2)C[C@@H]2CCCC[C@@H]21) [Apelin polypeptide SEQ ID NO: 406]	33.6 nM	73 nM
Tridecanoyl-[γGlu][AEEA][AEEA][dQ][hArg]P[dR][Cha]SHKG[Oic][Nle][Oic]-OH (SMILES CCCCCCCCCCCCC(=O)N[C@@H](CCC(=O)NCCOCCOCC(=O)NCCOCCOCC(=O)N[C@H](CCC(N)=O)C(=O)N[C@@H](CCCCNC(=N)N)C(=O)N1CCC[C@H]1C(=O)N[C@H](CCCNC(=N)N)C(=O)N[C@@H](CC1CCCCC1)C(=O)N[C@@H](CO)C(=O)N[C@@H](Cc1c[nH]cn1)C(=O)N[C@@H](CCCCN)C(=O)NCC(=O)N1[C@H](C(=O)N[C@@H](CCCC)C(=O)N2[C@H](C(=O)O)C[C@@H]3CCCC[C@@H]32)C[C@@H]2CCCC[C@@H]21)C(=O)O) [Apelin polypeptide SEQ ID NO: 596]	5.13 nM	33.9 nM
Tridecanoyl-[γGlu][AEEA][AEEA][dQ][hArg]P[dR][Cha]SHKG[Oic][Nle]P[dIgl]-OH (SMILES CCCCCCCCCCCCC(=O)N[C@@H](CCC(=O)NCCOCCOCC(=O)NCCOCCOCC(=O)N[C@H](CCC(N)=O)C(=O)N[C@@H](CCCCNC(=N)N)C(=O)N1CCC[C@H]1C(=O)N[C@H](CCCNC(=N)N)C(=O)N[C@@H](CC1CCCCC1)C(=O)N[C@@H](CO)C(=O)N[C@@H](Cc1c[nH]cn1)C(=O)N[C@@H](CCCCN)C(=O)NCC(=O)N1[C@H](C(=O)N[C@@H](CCCC)C(=O)N2CCC[C@H]2C(=O)N[C@@H](C(=O)O)C2Cc3ccccc3C2)C[C@@H]2CCCC[C@@H]21)C(=O)O) [Apelin polypeptide SEQ ID NO: 431]	31.2 nM	25 nM

From US10941182 (Amgen, dated 2021)
